Measured values as given in patent publication US20210047373A1, “BETA BARREL POLYPEPTIDES AND METHODS FOR THEIR USE” (UNIVERSITY OF WASHINGTON, priority 2018, published 2021).

B1: mFAP2b: SEQ ID NO:69; mFAP2.5 with V67I (protein)
chain: MSRAAQLLPGTWQVTMTNEDGQTSQGQWHFQPRSPYTMDIVAQGTISDGRPIVGYGKATVKTPDTLDIDITYPSLGNIKAQGQITMDSPTQFKWDATTKGENDFHGRLTGTLQRQE
modifications: (1)..(1) optionally absent
B2: mFAP2a: SEQ ID NO:66 (protein)
chain: MSRAAQLLPGTWQATFTNEDGQTSQGQWHFQPRSPYTMDIVAQGTISDGRPIVGYGKATVKTPDTLDIDITYPSLGNIKAQGQITMDSPTQFKWDATTKGENDFHGRLTGTLQRQE
modifications: (1)..(1) optionally absent

Tests used:
[1] = Chromophore titration, fit to single binding site isotherm: DFHO; conditions: n=1 titration; ± SD of the fit; Table 3C
Description: (§1) Table 3A-C. Brightness and chromophore affinities of selected mFAP variants. Fluorescence brightness measurements at 10 μM (top table) and 100 nM (middle table) chromophore concentrations were normalized from 0 to 1 across all three chromophores (DFHBI, DFHBI-1T, and DFHO), and the normalized values for two protein concentrations tested for each chromophore at each chromophore concentration were averaged and standard deviations of the average computed. Reported values are the normalized averages and standard deviations of the means for each chromophore concentration and each chromophore. Reported relative densitometry values are the relative densitometry values normalized from 0 to 1 and represent how well each design expresses relative to one another in Lemo21(DE3) E. coli cultures. Thermodynamic dissociation constants (bottom table) are obtained by non-linear least squares fitting of chromophore titrations (n=1) to a single binding site isotherm, and values reported with the standard deviation of the fit. Where the obtained Kd values are below the protein concentration tested, the Kd and standard deviation of the fit are reported in parentheses. Values with “N/D” were not determined.

[2] = Chromophore titration, fit to single binding site isotherm: DFHBI; conditions: for Kd: n=1 titration, ± SD of the fit, Table 3C, read-out: DFHBI Kd
Description: (§2) Fluorescence binding assay. Protein-activated DFHBI fluorescence signals were measured in 96-well plate format (Corning 3650) on a Synergy neo2 plate reader (BioTek, Inc) with λex=450 nm or 460 nm and λem=500 nm or 510 nm. Binding reactions were performed at […] in PBS pH7.4 buffer. Protein concentrations were determined by 280 nm absorbance as described above. DFHBI (Lucerna, Inc) were resuspended in DMSO as instructed to make 100 mM stock and diluted in PBS to 0.5-10 μM. Approximate emission spectra were recorded for active designs from 490 to 600 nm.
as §1

[3] = test system: E. coli cells; test: Confocal imaging of E. coli expressing mFAP2a or mFAP2b labeled with chromophore; format: cell-based; conditions: for Chromophore selectivity, DFHBI versus DFHBI-1T: E. coli imaging
From the text: FIG. 20: Characterization of brighter and chromophore-specific mFAP variants (mFAP2a and mFAP2b). (a) Design model of de novo β-barrel variant mFAP2b protein backbone (cartoon) bound to small molecule chromophore DFHBI (sticks). (b, c) Chemical structures of the chromophores DFHBI and DFHBI-1T, respectively. (d, e) In vitro titration of (d) DFHBI or (e) DFHBI-1T with purified mFAP2, mFAP2b, and mFAP2a proteins. mFAP2a/DFHBI, mFAP2a/DFHBI-1T, and mFAP2b/DFHBI complexes are brighter than the mFAP2/DFHBI complex. mFAP2a has higher affinity toward DFHBI compared to mFAP2b. mFAP2a binds DFHBI-1T with higher affinity than mFAP2 and the complex has brighter fluorescence than the DFHBI systems. Error bars represent standard deviation of the mean of 8 technical replicates. Shown are the non-linear least squares fits to a single binding-site isotherm equation (lines). […] (f-i) The images on the left of each panel were acquired using a laser scanning confocal fluorescence microscope and show pseudo-colored normalized fluorescence intensity values per pixel. Scale bars represent 10 microns. In the design models shown on the right of each panel the residues unique to mFAP2b (V13, M15) and residues unique to mFAP2a (A13, F15) are shown as sticks. Intermolecular hydrogen bonds to the chromophore are shown as black dotted lines. […]
It was hypothesized that a commercially-available variant of the DFHBI chromophore with a trifluoromethyl group, DFHBI-1T (FIG. 20 c), could pack into the void without causing steric clashes with nearby amino acid side-chains and could therefore fit into the mFAP2a binding pocket, while […] would result in steric clashes in the mFAP2b pocket. Studying the fluorescence of mFAP2a and mFAP2b in the presence of DFHBI-1T experimentally validated this hypothesis. […] Based on the absolute and relative quantum yields measured for these four complexes, the brightest protein-chromophore combination is mFAP2a with DFHBI-1T, with an absolute quantum yield of 12.9% (˜3.5-fold dimmer than EGFP).

[4] = Chromophore titration, fit to single binding site isotherm: DFHBI-1T; conditions: n=1 titration; ± SD of the fit; Table 3C
Description: as §1

[5] = Fluorescence brightness with DFHO; format: biochemical; conditions: normalized 0 to 1 across all three chromophores; average ± SD of two protein concentrations
Description: as §1

[6] = Fluorescence brightness with DFHBI-1T; format: biochemical; conditions: normalized 0 to 1 across all three chromophores; average ± SD of two protein concentrations
Description: as §1

[7] = DFHBI titration of Ca2+-responsive mFAP variants in excess or absence of Ca2+; format: binding; conditions: DFHBI titration in absence and presence of Ca^2+, n=1
From the text: FIG. 23. In vitro fluorescence characterization of Ca^2+-responsive mFAP variants. […] Normalized fluorescence values (n=1) are fit to a sigmoid equation using non-linear least squares fitting (lines). […] Error bars represent the standard deviation of the mean of 3 technical replicates. The means are fit to a sigmoid equation (for positive allostery) or inverse sigmoid equation (for negative allostery) with Hill coefficients of 1 using non-linear least squares fitting (lines) to extract reported Kd values in Table 5.
DFHBI Kd^+(in excess Ca^2+), DFHBI Kd^−(in absence of Ca^2+), and Ca^2+Kd (in excess DFHBI) are computed by fitting the normalized fluorescence readouts from titrations to a single binding site isotherm equation with Hill coefficient of 1 using non-linear least squares fitting. Standard deviations of the fit are reported. Hill coefficients are reported for fitting the titration data to a single binding site isotherm with variable Hill coefficient using non-linear least squares fitting, and the standard deviation of the fit are reported. For positive allosteric modulators, Kd^−/Kd^+ is reported, and for negative allosteric modulators, Kd^+/Kd^− is reported. […]

[8] = Fluorescence activation / brightness with DFHBI; format: biochemical; conditions: for Fluorescence brightness, 100 nM DFHBI / Fluorescence brightness, 10 μM DFHBI: normalized 0 to 1 across all three chromophores, average ± SD of two protein concentrations
Description: as §2, §1

[9] = Photophysical characterization (absorbance, excitation, emission, extinction coefficient, quantum yield); format: physicochemical
[10] = test system: fixed COS-7 cells; test: Photostability under continuous wave imaging; format: cell-based; conditions: endoplasmic reticulum, 50 μM DFHBI, frame 1 to frame 200
Description: FIG. 21: Super-resolution microscopy and photostability of mFAP2a and mFAP2b. (a-g) To show the application of the mFAP system in super-resolution microscopy, mFAP2a and mFAP2b were fused to a designed protein polymerizing into a filament (DHF119). (a) The maximum diameter of the DHF119 fiber fused to the 6×His-tagged mFAP2b was estimated to be ˜22 nm based on the computational design models. (b-d) The DHF119-GS-mFAP2a-6×His fiber was labeled at 5.78 μM DFHBI-1T and (e-f) the DHF119-GS-mFAP2b-6×His was labeled at 1.83 μM DFHBI. Both systems were imaged with (b,e) fluorescence widefield microscopy and (c,f) fluorescence localization microscopy. Scale bars are 1 micron. (d,g) Normalized average intensity profiles between the yellow arrowheads shown in the widefield image (black line) or localization reconstruction (grey line) estimate the diameter of the fluorescent filament. The mean and standard deviation of the mean of the full width half maximum (FWHM) values of the three intensity profiles are annotated, 11-k) Photostability of mFAP2a and mFAP2b complexes with DFHBI and DFHBI-1T compared to AcGFP1. […] Normalized fluorescence intensity images are shown for four regions of interest (ROIs). (h, i) Frames 1 (left) to 200 (right) were acquired under continuous wave imaging at 0.885 Hz (1.13 s/frame). Scale bars are 10 microns. […]

| Molecule | Kd [1] | Kd [2] | Chromophore selectivity, DFHBI versus DFHBI-1T [3] | Kd [4] | Fluorescence brightness, 100 nM DFHO [5] | Fluorescence brightness, 10 μM DFHO [5] | Fluorescence brightness, 100 nM DFHBI-1T [6] | Fluorescence brightness, 10 μM DFHBI-1T [6] | Fluorescence brightness, 100 nM DFHBI [8] | Fluorescence brightness, 10 μM DFHBI [8] | other results |
| --- | --- | --- | --- | --- | --- | --- | --- | --- | --- | --- | --- |
| B1 | 9.01 ± 1.91 µM | 1.67 ± 0.08 µM | pronounced chromophore selectivity | 42.2 ± 6.03 µM | 0.01 ± 0.0 | 0.01 ± 0.0 | 0.01 ± 0.0 | 0.01 ± 0.0 | 0.82 ± 0.02 | 1.0 ± 0.0 | Weaker affinity for the chromophore than mFAP2 ([2]; DFHBI): ~14.1 fold; Fluorescent signal in E. coli with DFHBI-1T ([3]; 10 μM chromophore): does not give a fluorescent signal; Allostery between Ca^2+ and DFHBI binding [7]: no allostery; DFHBI complex brighter than DFHBI-1T complex ([8]; FIG. 20 d,e): ~70 fold; Brighter than mFAP2.4 ([8]; neutral pH): ~1.3 fold; Brighter than mFAP2.5 ([8]; neutral pH): ~1.2 fold; Brighter fluorescence than mFAP1 ([8]; protein at 10-fold higher concentration than DFHBI, peak emission 511 nanometers): approximately 4.5 |
| B2 | 8.47 ± 1.99 µM | 0.0546 ± 0.01 µM | pronounced chromophore promiscuity | 3.7 ± 0.56 µM | 0.03 ± 0.01 | 0.04 ± 0.0 | 0.59 ± 0.06 | 0.92 ± 0.05 | 1.0 ± 0.0 | 0.77 ± 0.12 | Absolute quantum yield with DFHBI-1T [9]: 12.9%; Brightness, times dimmer than EGFP ([9]; with DFHBI-1T): ~3.5 fold; Photostability compared to AcGFP1 [10]: higher fluorescent signal is retained; Brighter fluorescence than mFAP2b ([8]; low DFHBI concentration (554.88 nM), neutral pH): ~1.3 fold |
